Bridges are numbered along the chain shown (N, C = ends). Where no end group is shown, it is not given here. 99mTc‑Chelate II = tetraamine chelate labelled with 99mTc, on the N-terminus
Tests used:
collagen type I [1] = molecular target: collagen type I (Homo sapiens, UniProt P02452+P08123); assay: In vitro binding to collagen type I coated plate
Procedure: A Maxisorp plate was incubated overnight at 4° C. with 50 μL or 100 μL 0.1 mg/mL collagen type I. All solutions were removed from the wells using a pipette. Wells were washed twice with 200 μL PBS, and then incubated with 150 μL PBS containing 0.1% BSA for 30 minutes at room temperature. Wells were washed five times with 200 μL PBS, and then 90 μL PBS was added to each well. 10 μL of neat (and two-fold serially diluted in PBS) Imaging Agent 1 was added to the wells in quadruplicate. The plate was sealed and incubated for 1 hour at 37° C.
The wells were washed seven times with ice-cold PBS (200 μL); and then the wells were transferred to a glass vial and counted (measured) for ^99mTc-activity using a Wallac counter for a 60 s count for each sample.
FIG. 1 illustrates binding of Imaging Agent 1 to collagen type I coated wells from one experiment.

collagen type I [2] = assay: saturation binding of 99mTc-labelled peptide to collagen type I coated Maxisorp wells, one-site hyperbola fit

Sequence of collagen type I (Homo sapiens, UniProt P02452+P08123) (P02452 162-1218 limits assumed): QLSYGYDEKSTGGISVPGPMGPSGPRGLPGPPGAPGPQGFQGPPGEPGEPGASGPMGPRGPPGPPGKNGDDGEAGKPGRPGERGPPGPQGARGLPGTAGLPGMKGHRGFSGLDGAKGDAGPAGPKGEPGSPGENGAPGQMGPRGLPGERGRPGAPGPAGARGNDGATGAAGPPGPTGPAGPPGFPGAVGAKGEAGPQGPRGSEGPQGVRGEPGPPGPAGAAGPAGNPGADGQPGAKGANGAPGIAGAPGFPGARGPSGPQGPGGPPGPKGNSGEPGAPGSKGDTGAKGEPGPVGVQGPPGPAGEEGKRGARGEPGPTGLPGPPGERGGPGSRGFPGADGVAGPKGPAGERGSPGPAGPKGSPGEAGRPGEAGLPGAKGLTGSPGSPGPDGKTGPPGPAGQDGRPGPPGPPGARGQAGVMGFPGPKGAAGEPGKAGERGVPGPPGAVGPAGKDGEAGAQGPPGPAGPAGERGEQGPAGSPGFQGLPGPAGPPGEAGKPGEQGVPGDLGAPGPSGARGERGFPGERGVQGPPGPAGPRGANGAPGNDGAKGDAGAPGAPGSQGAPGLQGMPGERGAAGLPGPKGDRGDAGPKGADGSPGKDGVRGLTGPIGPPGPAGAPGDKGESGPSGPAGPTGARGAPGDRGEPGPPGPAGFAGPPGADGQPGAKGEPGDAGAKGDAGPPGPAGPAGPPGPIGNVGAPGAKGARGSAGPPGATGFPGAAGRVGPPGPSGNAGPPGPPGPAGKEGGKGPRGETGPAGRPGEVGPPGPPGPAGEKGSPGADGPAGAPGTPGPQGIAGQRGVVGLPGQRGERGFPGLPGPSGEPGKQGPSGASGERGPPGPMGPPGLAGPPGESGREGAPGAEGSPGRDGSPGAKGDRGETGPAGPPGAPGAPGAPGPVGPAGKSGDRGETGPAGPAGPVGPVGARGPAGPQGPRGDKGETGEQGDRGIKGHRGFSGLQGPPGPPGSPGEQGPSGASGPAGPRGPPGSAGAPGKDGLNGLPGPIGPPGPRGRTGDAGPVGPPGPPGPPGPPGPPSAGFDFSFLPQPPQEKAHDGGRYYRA
Sequence of collagen type I (Homo sapiens, UniProt P02452+P08123) (P08123 80-1119 limits assumed): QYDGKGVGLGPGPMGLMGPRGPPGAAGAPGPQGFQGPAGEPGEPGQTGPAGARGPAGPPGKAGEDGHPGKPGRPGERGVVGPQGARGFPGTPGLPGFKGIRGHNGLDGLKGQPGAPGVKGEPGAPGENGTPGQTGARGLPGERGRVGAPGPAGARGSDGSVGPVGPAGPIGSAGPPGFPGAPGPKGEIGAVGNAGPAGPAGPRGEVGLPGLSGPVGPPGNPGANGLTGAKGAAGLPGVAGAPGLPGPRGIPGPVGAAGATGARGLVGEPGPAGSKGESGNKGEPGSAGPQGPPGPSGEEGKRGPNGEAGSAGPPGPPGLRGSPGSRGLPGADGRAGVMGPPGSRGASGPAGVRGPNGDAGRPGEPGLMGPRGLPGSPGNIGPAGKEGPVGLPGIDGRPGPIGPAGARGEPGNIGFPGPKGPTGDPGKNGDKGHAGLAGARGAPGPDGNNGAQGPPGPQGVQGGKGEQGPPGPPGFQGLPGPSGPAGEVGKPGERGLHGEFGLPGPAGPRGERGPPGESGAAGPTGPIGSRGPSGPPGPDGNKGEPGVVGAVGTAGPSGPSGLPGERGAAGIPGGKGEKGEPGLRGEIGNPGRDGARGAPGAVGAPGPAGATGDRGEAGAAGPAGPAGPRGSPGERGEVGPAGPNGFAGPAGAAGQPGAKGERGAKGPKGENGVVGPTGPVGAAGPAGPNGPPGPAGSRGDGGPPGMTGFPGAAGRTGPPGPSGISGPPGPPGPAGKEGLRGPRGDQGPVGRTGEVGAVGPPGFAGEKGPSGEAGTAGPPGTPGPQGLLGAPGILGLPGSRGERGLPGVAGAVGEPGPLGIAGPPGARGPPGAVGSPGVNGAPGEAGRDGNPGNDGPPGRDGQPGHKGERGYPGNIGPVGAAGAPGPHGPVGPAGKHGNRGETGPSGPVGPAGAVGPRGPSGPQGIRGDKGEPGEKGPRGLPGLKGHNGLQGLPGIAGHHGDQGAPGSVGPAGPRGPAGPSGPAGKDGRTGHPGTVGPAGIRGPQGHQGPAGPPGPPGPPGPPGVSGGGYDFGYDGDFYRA

Row | Molecule | binding to collagen in vitro (collagen type I [1]) | Bmax (collagen type I [2]) [attomoles] | Kd (collagen type I [2]) [nM]
1 | ^123I-labelled Ac-CKELNVLYTC-NH2 (disulfide 1-10; also: 123I-labelled) [Imaging Agent 36] | bind with high affinity to collagen in vitro | – | –
2 | ^123I-labelled Ac-KELNLVYT-NH2 (also: 123I-labelled) [Imaging Agent 29] | bind with high affinity to collagen in vitro | – | –
3 | ^123I-labelled KELNVLYT-NH2 (also: 123I-labelled) [Imaging Agent 35] | bind with high affinity to collagen in vitro | – | –
4 | {99mTc‑Chelate II}-ANAALKAGELYKCILY-NH2 (also: 99mTc complex) [Imaging Agent 1: [99mTc-Chelate II]-…-NH2] | – | 1070 | 194

Reference: patent publication US8304388B2, “Imaging agents” (GE Healthcare Limited, priority 2006, dated 2012)
